From PMC2670981, “Divergence of Catalytic Mechanism within a Glycosidase Family Provides Insight into Evolution of Carbohydrate Metabolism by Human Gut Flora” (Chemistry & Biology, 2008)

System: O=[N+]([O-])c1ccc(O[C@H]2O[C@H](CO)[C@@H](O)[C@H](O)[C@H]2O)c([N+](=O)[O-])c1
Assay: purified protein
Details: Ca2+

Substance “BtGH97a (Bacteroides thetaiotaomicron VPI-5482)” has a Km of 140 ± 10 µM, a kcat of 280 ± 7 s⁻¹ and a kcat/Km of 2e+06 M⁻¹ s⁻¹.
